{"source": "paper PMC4622054", "key": {"[1]": {"target": "Human FcRn (hFcRn), soluble α-chain/β2m heterodimer (human) (UniProt P55899)", "sequence (P55899 34-290, chain 1 of 2)": "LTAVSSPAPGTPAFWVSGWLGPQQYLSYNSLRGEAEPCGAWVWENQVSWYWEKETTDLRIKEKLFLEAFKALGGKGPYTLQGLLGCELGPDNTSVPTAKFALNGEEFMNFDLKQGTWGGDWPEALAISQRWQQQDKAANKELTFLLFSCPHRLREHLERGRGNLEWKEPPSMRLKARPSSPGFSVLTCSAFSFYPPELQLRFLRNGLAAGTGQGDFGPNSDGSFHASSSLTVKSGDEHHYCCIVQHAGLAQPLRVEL", "sequence (P61769 21-119, chain 2 of 2, further chain)": "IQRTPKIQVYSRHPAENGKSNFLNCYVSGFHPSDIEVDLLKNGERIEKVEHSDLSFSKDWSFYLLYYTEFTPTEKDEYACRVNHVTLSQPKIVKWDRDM", "assay": "BLI"}, "[2]": {"target": "Human FcRn (hFcRn), soluble α-chain/β2m heterodimer (human) (UniProt P55899)", "assay": "BLI", "remark": "listed apart in the source"}, "[3]": {"target": "Human FcRn (hFcRn), soluble α-chain/β2m heterodimer (human) (UniProt P55899)", "assay": "BLI; hFcRn-loaded surface; human IgG1 as analyte, association at pH 6.0 and dissociation at pH 6.0"}, "[4]": {"target": "Human FcRn (hFcRn), soluble α-chain/β2m heterodimer, P55899;P61769", "assay": "BLI (in vitro BLI-based FcRn platform)", "settings": "parent: est. 270; read off a plot"}, "[5]": {"target": "CDA1 (actoxumab), human IgG1 monoclonal antibody (UniProt P01857)", "assay": "biolayer interferometry (Octet QK, ForteBio)", "settings": "30°C, PBS (composition and salt concentration not stated), PBS adjusted to pH 6.0 with HCl for the acidic steps, PBS pH 7.5 for the physiological-pH steps"}}, "note": "Read-outs that look alike come from different tables or passages of the source."}
{"substance": "CDA1 (actoxumab), fully human IgG1 mAb (antibody)", "values": [{"measurement": "koff", "setting": "[1]", "value": 0.101, "unit": "s⁻¹"}, {"measurement": "fold change FcRn binding rate", "setting": "[2]", "value": 1.14, "unit": "fold"}, {"measurement": "fold change of the association rate against RAB1", "setting": "[2]", "value": 1.09, "unit": "fold"}, {"measurement": "fold change of the dissociation rate against CDB1", "setting": "[2]", "value": 1.18, "unit": "fold"}, {"measurement": "koff", "setting": "[2]", "value": 0.0906, "unit": "s⁻¹"}, {"measurement": "fold slower off-rate at pH 6.0 than at pH 7.5", "setting": "[3]", "value": 5, "unit": "fold"}]}
{"substance": "HCV1, fully human IgG1 mAb HCV (with CDA VH CDRs and CDB Vk CDRs): VH CDR1-3 of HCV1 replaced by VH CDRs of CDA1; Vk CDR1-3 of HCV1 replaced by Vk CDRs of CDB1; residues not printed", "values": [{"measurement": "other: Predicted Human t1/2, β", "setting": "[4]", "value": 27.1, "unit": "days"}]}
{"substance": "soluble human neonatal Fc receptor (hFcRn; alpha-chain/beta2-microglobulin heterodimer)", "values": [{"measurement": "average association rate (apparent kon)", "setting": "[5]; pH 6.0", "value": "0.2087 ± 0.0036", "unit": "s⁻¹"}, {"measurement": "kon (apparent association rate)", "setting": "[5]; pH 6.0", "value": 0.110, "unit": "s⁻¹"}, {"measurement": "average dissociation rate (koff)", "setting": "[5]; pH 7.5", "value": "0.0906 ± 0.0034", "unit": "s⁻¹"}, {"measurement": "koff", "setting": "[5]; pH 7.5", "value": 0.101, "unit": "s⁻¹"}]}
